Key:
[1] = biological target: IRE1α LD 312TLPL315-GSGS mutant (human) (UniProt O75460); experiment: AUC
[2] = biological target: IRE1α LD 352LNYL355-GSGS mutant (human) (UniProt O75460); experiment: AUC

stoichiometry N [1] | stoichiometry N [2] | Substance
2 |  | IRE1α LD 312TLPL315-GSGS mutant (from UniProt O75460 24-443) (domain or fragment)
 | 2 | IRE1α LD 352LNYL355-GSGS mutant (from UniProt O75460 24-443) (domain or fragment)
